The values that follow are results of earlier work, collected in patent US20240408194A1, “DNA ORIGAMI SUBUNIT VACCINE FOR PREVENTION OF SARS-CoV-2 VARIANT INFECTION” (priority 2021, published 2024).

pKd: −log10 of the molar value.

The data set addresses T1, fibrinogen (Homo sapiens, UniProt P02675+P02679).
T1 sequence (P02675 31-491): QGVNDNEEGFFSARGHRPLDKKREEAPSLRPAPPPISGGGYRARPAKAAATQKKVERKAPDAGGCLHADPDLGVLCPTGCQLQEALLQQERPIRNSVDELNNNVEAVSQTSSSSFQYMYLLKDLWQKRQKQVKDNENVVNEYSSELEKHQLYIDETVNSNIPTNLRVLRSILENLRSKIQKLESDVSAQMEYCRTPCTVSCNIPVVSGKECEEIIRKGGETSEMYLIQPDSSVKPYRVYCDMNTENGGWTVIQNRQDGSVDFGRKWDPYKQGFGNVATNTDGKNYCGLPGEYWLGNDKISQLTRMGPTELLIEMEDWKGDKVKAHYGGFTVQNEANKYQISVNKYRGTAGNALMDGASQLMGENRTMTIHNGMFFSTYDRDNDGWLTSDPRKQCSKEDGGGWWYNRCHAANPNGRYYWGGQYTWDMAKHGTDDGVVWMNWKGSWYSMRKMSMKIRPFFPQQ
T1 sequence (P02679 27-453): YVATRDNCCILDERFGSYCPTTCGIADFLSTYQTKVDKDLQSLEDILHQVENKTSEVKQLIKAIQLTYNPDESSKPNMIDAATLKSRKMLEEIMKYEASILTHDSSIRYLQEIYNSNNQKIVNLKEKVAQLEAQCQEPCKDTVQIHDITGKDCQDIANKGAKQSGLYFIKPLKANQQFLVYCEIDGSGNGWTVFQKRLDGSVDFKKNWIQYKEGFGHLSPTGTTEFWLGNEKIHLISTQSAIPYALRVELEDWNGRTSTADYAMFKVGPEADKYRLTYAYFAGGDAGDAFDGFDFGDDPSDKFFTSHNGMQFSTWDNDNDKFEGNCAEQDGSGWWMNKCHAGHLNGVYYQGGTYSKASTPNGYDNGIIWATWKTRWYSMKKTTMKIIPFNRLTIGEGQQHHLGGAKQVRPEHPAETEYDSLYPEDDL
T1 sequence (P02671 20-629 partner limits assumed): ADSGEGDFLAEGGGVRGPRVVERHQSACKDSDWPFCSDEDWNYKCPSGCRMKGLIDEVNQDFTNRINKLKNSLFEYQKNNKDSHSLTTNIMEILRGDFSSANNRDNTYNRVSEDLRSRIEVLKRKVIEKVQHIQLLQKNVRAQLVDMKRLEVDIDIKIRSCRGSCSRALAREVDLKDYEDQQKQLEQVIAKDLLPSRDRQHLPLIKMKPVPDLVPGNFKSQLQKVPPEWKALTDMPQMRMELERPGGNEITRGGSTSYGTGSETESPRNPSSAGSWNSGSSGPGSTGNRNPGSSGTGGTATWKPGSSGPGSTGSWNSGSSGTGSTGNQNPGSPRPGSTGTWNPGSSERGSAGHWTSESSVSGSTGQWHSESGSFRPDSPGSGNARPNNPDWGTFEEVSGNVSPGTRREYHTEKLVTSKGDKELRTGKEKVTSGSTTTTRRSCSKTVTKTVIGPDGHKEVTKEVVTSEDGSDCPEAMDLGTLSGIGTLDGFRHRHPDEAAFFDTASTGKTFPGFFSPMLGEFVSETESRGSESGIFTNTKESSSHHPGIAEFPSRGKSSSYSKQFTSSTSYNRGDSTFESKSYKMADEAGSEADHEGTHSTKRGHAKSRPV
Conditions: hydrophobic pocket domains of fibrinogen; cited from earlier work.

On to “GPRPXX: short fibrin knob peptide (SEQ ID NO: 3) that recognizes hydrophobic pocket domains of fibrinogen”, for which the pKd – broadly, the Kd on a negative log10 scale, so that one unit is a factor of ten – is 5.00 to 5.30.
